2 molecules from patent publication US20230257472A1 (JIANGSU HENGRUI MEDICINE, published 2023) can be followed below.

Test [1] has as its target T1, human CD70 on cells (CD70-positive 786-O cells, Raji cells, CHO-S cells expressing human full-length CD70, … (human, UniProt P32970 1-193)).
T1 sequence (looked up): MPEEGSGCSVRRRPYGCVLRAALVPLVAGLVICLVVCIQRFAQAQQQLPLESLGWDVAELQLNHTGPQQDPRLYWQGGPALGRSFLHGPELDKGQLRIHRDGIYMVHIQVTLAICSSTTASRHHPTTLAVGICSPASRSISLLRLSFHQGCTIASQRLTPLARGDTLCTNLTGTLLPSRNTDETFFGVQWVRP
Briefly: cell-based or functional assay.

The target of test [2] is T2, His-tagged CD70 protein extracellular domain (His-TNC-CD70) (human).
T2 construct: Expressed in 293 cells; also called human His-TNC-CD70 antigen; human CD70 antigen
T2 chain: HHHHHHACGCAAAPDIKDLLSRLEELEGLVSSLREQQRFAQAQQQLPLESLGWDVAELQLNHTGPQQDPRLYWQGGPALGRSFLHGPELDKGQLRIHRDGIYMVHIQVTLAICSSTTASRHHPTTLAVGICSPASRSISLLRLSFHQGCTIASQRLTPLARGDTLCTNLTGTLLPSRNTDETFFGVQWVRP
Description: SPR Biacore T200, antibody captured by anti-human Fc, His-TNC-CD70 in flow, 1:1 model. Here is the method: The affinity of the chimeric and humanized antibodies of the present disclosure for the human CD70 antigen was tested using a Biacore instrument. The procedures are as follows:
The human Fc capture molecules were covalently coupled to a CM5 biosensor chip (CAT #BR-1005-30, GE) according to the method described in the instructions of the human Fc capture kit (CAT #BR-1008-39, GE) for affinity capture of the antibodies to be tested. Then, a human His-TNC-CD70 antigen (set forth in SEQ ID NO: 1) flowed through the surface of the chip, and the reaction signal was detected in real time using a Biacore T200 instrument to obtain association and dissociation curves. After the dissociation was completed for each cycle, the biochip was washed and regenerated with a regeneration solution configured in the human antibody capture kit (GE). Data were fitted using a 1:1 model.
Background: SPR reads the build-up and loss of mass on a sensor chip optically.

Test [3] has as its target fusion protein of the CD70 protein extracellular domain and Human-IgG1-Fc (human CD70-Fc) (human). Description: ELISA, plate coated with 1 µg/mL human CD70-Fc, HRP goat anti-human F(ab')2 detection. Here is the method:
(§1) The binding ability of the anti-CD70 antibodies was determined by the amount of the antibodies bound to the CD70 antigen protein immobilized on the ELISA plate. 1 μg/mL human CD70-Fc (set forth in SEQ ID NO: 2), monkey CD70-Fc (set forth in SEQ ID NO: 82) and mouse CD70-Fc (set forth in SEQ ID NO: 83) were coated, incubated and blocked. […] OD450 values were measured on a microplate reader.

Test [4] addresses T3, fusion protein of the murine CD70 protein extracellular domain and Human-IgG1-Fc (mouse CD70-Fc) (mouse).
T3 construct: also called mouse CD70 antigen
Description: ELISA, plate coated with 1 µg/mL mouse CD70-Fc, HRP goat anti-human F(ab')2 detection. The protocol:
as §1

For test [5], the target named is T4, fusion protein of the monkey CD70 protein extracellular domain and Human-IgG1-Fc (monkey CD70-Fc) (monkey).
T4 construct: also called monkey CD70 antigen
T4 sequence (chain, as listed by the source limits assumed): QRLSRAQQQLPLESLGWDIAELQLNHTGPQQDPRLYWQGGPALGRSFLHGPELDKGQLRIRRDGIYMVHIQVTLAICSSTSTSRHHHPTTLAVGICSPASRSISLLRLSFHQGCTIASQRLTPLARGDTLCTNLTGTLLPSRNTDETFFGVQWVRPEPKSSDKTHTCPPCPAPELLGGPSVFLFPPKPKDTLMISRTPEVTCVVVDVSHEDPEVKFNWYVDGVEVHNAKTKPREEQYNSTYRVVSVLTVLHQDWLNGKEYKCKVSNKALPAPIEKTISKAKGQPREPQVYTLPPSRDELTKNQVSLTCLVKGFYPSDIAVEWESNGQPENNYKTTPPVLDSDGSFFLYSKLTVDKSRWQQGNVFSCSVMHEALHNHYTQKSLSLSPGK
Briefly: ELISA, plate coated with 1 µg/mL monkey CD70-Fc, HRP goat anti-human F(ab')2 detection. The protocol: as §1
On the technique in general: In an ELISA, binding on a coated surface is turned into a signal by an enzyme label.

Test [6] has as its target T1, human CD70 on cells (CD70-positive …). Description: flow cytometry on CD70-positive Raji cells, Alexa Fluor 488 goat anti-human (H+L) detection. Here is the method: (§2) 786-O cells (ATCC, CRL-1932) or Raji cells (ATCC, CCL-86) at 1×10⁶ cells/mL were blocked with 1% BSA PBS buffer, followed by the addition of diluted anti-CD70 antibody samples at different concentrations were added, and the mixture was incubated for 1 h. After the plate was washed twice, Alexa Fluor 488-goat anti-human (H+L) antibody (Invitrogen, CAT #A 11013) was added, and the mixture was incubated for 1 h. After the plate was washed twice, fluorescence signals were read using a flow cytometer.

For test [7] the target is unchanged. Briefly: flow cytometry on CD70-positive 786-O cells, Alexa Fluor 488 goat anti-human (H+L) detection. Here is the method: as §2
Background: In flow cytometry, cells or beads pass a laser one at a time.

The target is the same in test [8]. Description: flow cytometry competition on CHO-S cells expressing human full-length CD70; blocked ligand: biotin-labeled CD27-Fc, Alexa Fluor 488 streptavidin detection. Here is the method:
The cell-blocking activity of the anti-CD70 antibodies was assayed by flow cytometry. CHO-S cells expressing human full-length CD70 (Invitrogen, R80007) at 1×10⁶ cells/mL were blocked with 1% BSA PBS buffer, followed by the addition with diluted anti-CD70 antibody samples at different concentrations and biotin-labeled CD27-Fc (set forth in SEQ ID NO: 84), and the mixture was incubated for 1 h. After the plate was washed twice, Alexa Fluor 488-streptavidin (Invitrogen, CAT #S11223) was added, and the mixture was incubated for 1 h. After the plate was washed twice, fluorescence signals were read using a flow cytometer.

T3 sequence (chain, as listed by the source limits assumed): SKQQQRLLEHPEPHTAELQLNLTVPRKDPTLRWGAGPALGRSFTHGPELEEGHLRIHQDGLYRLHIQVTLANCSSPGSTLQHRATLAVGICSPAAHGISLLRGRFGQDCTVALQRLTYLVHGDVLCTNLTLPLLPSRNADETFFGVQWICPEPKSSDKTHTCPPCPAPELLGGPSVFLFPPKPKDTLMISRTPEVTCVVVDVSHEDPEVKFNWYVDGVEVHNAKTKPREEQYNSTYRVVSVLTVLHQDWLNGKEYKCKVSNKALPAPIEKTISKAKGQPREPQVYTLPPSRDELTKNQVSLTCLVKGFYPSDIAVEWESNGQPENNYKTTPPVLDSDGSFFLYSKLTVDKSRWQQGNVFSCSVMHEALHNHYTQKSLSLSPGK
fusion protein of the CD70 protein extracellular domain and Human-IgG1-Fc (human CD70-Fc) (human), sequence (chain, as listed by the source limits assumed): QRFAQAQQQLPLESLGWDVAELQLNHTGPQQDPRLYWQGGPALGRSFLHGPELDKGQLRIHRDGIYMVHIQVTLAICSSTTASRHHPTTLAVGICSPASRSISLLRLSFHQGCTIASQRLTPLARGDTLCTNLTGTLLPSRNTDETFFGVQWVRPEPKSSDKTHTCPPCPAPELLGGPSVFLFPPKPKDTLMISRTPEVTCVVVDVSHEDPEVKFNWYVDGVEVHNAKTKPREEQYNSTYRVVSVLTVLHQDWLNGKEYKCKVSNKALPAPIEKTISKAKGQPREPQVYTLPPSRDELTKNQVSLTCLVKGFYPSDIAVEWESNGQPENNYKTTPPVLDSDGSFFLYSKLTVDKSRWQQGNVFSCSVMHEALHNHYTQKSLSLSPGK

B1: huF4011 (antibody, human IgG1, kappa, V domains shown)
VH: EVQLVQSGAEVKKPGSSVKVSCKASGDTFPRYNMHWVRQAPGQGLEWMGAIFPGTGETSYNQNFKGRVTLTADKSTSTAYMELSSLRSEDTAVYYCARNSYYDYAWFTYWGQGTLVTVSS
VL: DIVMTQSPDSLAVSLGERATINCRASKSVSSSGYSFMHWYQQKPGQPPKLLISLADNLESGVPDRFSGSGSGTDFTLTISSLQAEDVAVYYCQHSREFPPTFGQGTKLEIKR
notes: Humanized IgG1
The Kd is the free concentration of one partner at which half of the binding sites on the other are occupied at equilibrium, for simple one-to-one binding. One may read the koff as the rate constant with which the complex falls apart. One may read the kon as the rate constant with which the complex forms. For orientation: EC50 (read off the curve) means the concentration giving half of the maximal effect. Take B1: in test [1], the “IC50 (ng/mL), inhibition of IL-8 secretion mediated by CD70/CD27 binding (U266 cells + HT1080/CD27 cells)” value is 14.2 ng/mL and the “Imax (%), maximum inhibition rate of IL-8 secretion from CD27 cells” value was found to be 93.8%. Besides, in test [2], the Kd came to 0.0465 nM, the dissociation rate constant (koff) worked out at 0.000145 s⁻¹ and the kon stood at 3.12e+06 M⁻¹ s⁻¹. The “EC50 (read off the curve)” value in test [3] was approximately 0.03 µg/mL. Also, the binding result in test [4] was “no binding (tested: 10 µg/mL (log 1))”. In addition, the “EC50 (read off the curve)” value in test [5] is approximately 0.05 µg/mL. Further, the “EC50 (read off the curve)” value in test [6] was approximately 0.02 µg/mL. In addition, the “EC50 (read off the curve)” value in test [7] was approximately 0.03 µg/mL. The “IC50 (read off the curve)” value in test [8] is approximately 0.4 µg/mL.

B2: huB1010 (antibody, human IgG1, kappa, V domains shown)
VH: EVQMVQSGAEVKKPGASVKVSCKASGYTFTTYNIHWVRQAPGQGLEWMGDIYPGTGDASYNQKFRDRVTMTRDTSTSTVYMELSSLRSEDTAVYYCATFSRFDGWFAYWGQGTLVTVSS
VL: DIVMTQSPDSLAVSLGERATINCRASRSVSTSGYSYMHWYQQKPGQPPKLLIYLADNLESGVPDRFSGSGSGTDFTLTISSLQAEDVAVYYCQHSRELPYTFGGGTKVEIKR
notes: Humanized IgG1
In test [2], B2 displayed a Kd of 0.0355 nM. In addition, the koff in test [2] is 0.00013 s⁻¹. Besides, the on-rate constant (kon) in test [2] amounted to 3.67e+06 M⁻¹ s⁻¹. For the same molecule, the “EC50 (read off the curve)” value was approximately 0.04 µg/mL in test [3], approximately 0.02 µg/mL in test [6] and approximately 0.02 µg/mL in test [7]. Also, the binding result in test [4] is reported as “no binding (tested: 10 µg/mL (log 1))”; in test [5], “binds”. For the same molecule, in test [8], the “IC50 (read off the curve)” value is approximately 0.4 µg/mL.
